Paper PMC10967792

Assays:
[1] = molecular target: hCCR7-mNeongreen (CCR7 C-terminally tagged with mNeonGreen) (human) (UniProt P32248)
[2] = molecular target: human CC chemokine receptor 7 (hCCR7), stably expressed (human) (UniProt P32248)

| Sequence | pEC50 of β-arrestin1 (Arrβ1) recruitment to CCR7 (NanoBRET), CHO-K1 cells [1] | pEC50 of β-arrestin1 (Arrβ1) recruitment to CCR7 (NanoBRET), HEK293A cells [1] | pEC50 of β-arrestin1 (Arrβ1) recruitment to CCR7 (NanoBRET), U87 cells [1] | pEC50 of β-arrestin2 (Arrβ2) recruitment to CCR7 (NanoBRET), CHO-K1 cells [1] | pEC50 of β-arrestin2 (Arrβ2) recruitment to CCR7 (NanoBRET), HEK293A cells [1] | pEC50 of β-arrestin2 (Arrβ2) recruitment to CCR7 (NanoBRET), U87 cells [1] | pEC50 of Gα12 activation (NanoBRET, G protein dissociation), HEK293A cells expressing CCR7 [2] | pEC50 of Gα12 activation (NanoBRET, G protein dissociation), U87 cells expressing CCR7 [2] | pEC50 of Gα13 activation (NanoBRET, G protein dissociation), CHO-K1 cells expressing CCR7 [2] | pEC50 of Gα13 activation (NanoBRET, G protein dissociation), U87 cells expressing CCR7 [2] | pEC50 of Gα15 activation (NanoBRET, G protein dissociation), CHO-K1 cells expressing CCR7 [2] | pEC50 of Gα15 activation (NanoBRET, G protein dissociation), HEK293A cells expressing CCR7 [2] | pEC50 of Gαi1 activation (NanoBRET, G protein dissociation), CHO-K1 cells expressing CCR7 [2] | pEC50 of Gαi1 activation (NanoBRET, G protein dissociation), HEK293A cells expressing CCR7 [2] | pEC50 of Gαi1 activation (NanoBRET, G protein dissociation), U87 cells expressing CCR7 [2] | pEC50 of Gαi2 activation (NanoBRET, G protein dissociation), CHO-K1 cells expressing CCR7 [2] | pEC50 of Gαi2 activation (NanoBRET, G protein dissociation), HEK293A cells expressing CCR7 [2] | pEC50 of Gαi2 activation (NanoBRET, G protein dissociation), U87 cells expressing CCR7 [2] | pEC50 of Gαi3 activation (NanoBRET, G protein dissociation), CHO-K1 cells expressing CCR7 [2] | pEC50 of Gαi3 activation (NanoBRET, G protein dissociation), HEK293A cells expressing CCR7 [2] | also measured |
| --- | --- | --- | --- | --- | --- | --- | --- | --- | --- | --- | --- | --- | --- | --- | --- | --- | --- | --- | --- | --- | --- |
| CC chemokine ligand 19 (CCL19) (from UniProt Q99731 22-98) | 7.92 -log10(M) | 7.46 -log10(M) | 7.86 -log10(M) | 8.11 -log10(M) | 7.57 -log10(M) | 7.86 -log10(M) | 7.44 -log10(M) | 7.81 -log10(M) | 8.87 -log10(M) | 8.77 -log10(M) | 8.91 -log10(M) | 7.8 -log10(M) | 8.54 -log10(M) | 8.63 -log10(M) | 8.28 -log10(M) | 8.69 -log10(M) | 9.03 -log10(M) | 8.56 -log10(M) | 8.84 -log10(M) | 9.61 -log10(M) | pEC50 of Gαi3 activation (NanoBRET, G protein dissociation), U87 cells expressing CCR7 [2]: 8.87 -log10(M); pEC50 of GαoA activation (NanoBRET, G protein dissociation), CHO-K1 cells expressing CCR7 [2]: 9.37 -log10(M); pEC50 of GαoA activation (NanoBRET, G protein dissociation), HEK293A cells expressing CCR7 [2]: 8.3 -log10(M); pEC50 of GαoA activation (NanoBRET, G protein dissociation), U87 cells expressing CCR7 [2]: 8.59 -log10(M); pEC50 of GαoB activation (NanoBRET, G protein dissociation), CHO-K1 cells expressing CCR7 [2]: 8.96 -log10(M); pEC50 of GαoB activation (NanoBRET, G protein dissociation), HEK293A cells expressing CCR7 [2]: 8.85 -log10(M); pEC50 of GαoB activation (NanoBRET, G protein dissociation), U87 cells expressing CCR7 [2]: 8.8 -log10(M); pEC50 of Gαq activation (NanoBRET, G protein dissociation), CHO-K1 cells expressing CCR7 [2]: 8.77 -log10(M); pEC50 of Gαq activation (NanoBRET, G protein dissociation), U87 cells expressing CCR7 [2]: 8.41 -log10(M); pEC50 of GαsL activation (NanoBRET, G protein dissociation), CHO-K1 cells expressing CCR7 [2]: 8.97 -log10(M); pEC50 of GαsL activation (NanoBRET, G protein dissociation), HEK293A cells expressing CCR7 [2]: 7.49 -log10(M); pEC50 of GαsL activation (NanoBRET, G protein dissociation), U87 cells expressing CCR7 [2]: 8.95 -log10(M); pEC50 of GαsS activation (NanoBRET, G protein dissociation), CHO-K1 cells expressing CCR7 [2]: 8.58 -log10(M); pEC50 of GαsS activation (NanoBRET, G protein dissociation), U87 cells expressing CCR7 [2]: 8.65 -log10(M) |
| CC chemokine ligand 21 (CCL21) (from UniProt O00585 24-134) | 7.52 -log10(M) | 7.15 -log10(M) | 6.9 -log10(M) | 7.69 -log10(M) | 7.02 -log10(M) | 7.01 -log10(M) | 6.79 -log10(M) | 7.5 -log10(M) | 8.53 -log10(M) | 8.7 -log10(M) | 7.56 -log10(M) | 6.74 -log10(M) | 8.37 -log10(M) | 8.47 -log10(M) | 8.02 -log10(M) | 8.91 -log10(M) | 8.76 -log10(M) | 8.27 -log10(M) | 8.84 -log10(M) | 9.33 -log10(M) | pEC50 of Gα12 activation (NanoBRET, G protein dissociation), CHO-K1 cells expressing CCR7 [2]: 7.94 -log10(M); pEC50 of Gαi3 activation (NanoBRET, G protein dissociation), U87 cells expressing CCR7 [2]: 8.6 -log10(M); pEC50 of GαoA activation (NanoBRET, G protein dissociation), CHO-K1 cells expressing CCR7 [2]: 9.27 -log10(M); pEC50 of GαoA activation (NanoBRET, G protein dissociation), HEK293A cells expressing CCR7 [2]: 7.97 -log10(M); pEC50 of GαoA activation (NanoBRET, G protein dissociation), U87 cells expressing CCR7 [2]: 8.33 -log10(M); pEC50 of GαoB activation (NanoBRET, G protein dissociation), CHO-K1 cells expressing CCR7 [2]: 8.97 -log10(M); pEC50 of GαoB activation (NanoBRET, G protein dissociation), HEK293A cells expressing CCR7 [2]: 8.34 -log10(M); pEC50 of GαoB activation (NanoBRET, G protein dissociation), U87 cells expressing CCR7 [2]: 8.45 -log10(M); pEC50 of Gαq activation (NanoBRET, G protein dissociation), CHO-K1 cells expressing CCR7 [2]: 8.45 -log10(M); pEC50 of Gαq activation (NanoBRET, G protein dissociation), U87 cells expressing CCR7 [2]: 8.1 -log10(M); pEC50 of GαsL activation (NanoBRET, G protein dissociation), HEK293A cells expressing CCR7 [2]: 6.79 -log10(M); pEC50 of GαsL activation (NanoBRET, G protein dissociation), U87 cells expressing CCR7 [2]: 8.99 -log10(M); pEC50 of GαsS activation (NanoBRET, G protein dissociation), CHO-K1 cells expressing CCR7 [2]: 8.1 -log10(M); pEC50 of GαsS activation (NanoBRET, G protein dissociation), U87 cells expressing CCR7 [2]: 8.39 -log10(M) |
